{
  "source": "patent US9428586B2",
  "about": "“Heparanase splice variant” (COMPUGEN LTD, priority 2010, dated 2016)",
  "key": {"[1]": {"assay": "Heparanase activity assay of transfected 293 cell lysates on 35S-labelled ECM", "assay_type": "biochemical, human", "source_text": "FIG. 2. Cloning and expression of T5. A. RT-PCR analysis. Total RNA was extracted from the indicated cell line and subjected to RT-PCR analysis applying T5 (upper panel), heparanase (second panel) and GAPDH (third panel) specific primers, specified in the ‘Materials and Methods’ section. B. T5 transfection. […] Control cells were transfected with an empty vector (Vo). Cell lysates (left) and cell conditioned medium (right) were blotted with anti-heparanase 1453 antibody. C. Cellular localization. Stably transfected 293 cells were triple stained for Myc-tag (T5; middle, red), the ER marker calnexin (ER, left, green), and merged with cell nuclei labeled with TO-PRO (right, blue). Cells were similarly stained with anti-Myc-tag (T5; middle, red), the Golgi marker wheat germ agglutinin-FITC (Golgi, left, green) and merged with cell nuclei labeled with TO-PRO (right, blue). […] D. Enzymatic activity. 293 cells transfected with heparanase (Hepa), T5 or control empty vector (Vo) were subjected to three freeze-thaw cycles and applied onto culture dishes coated with ^35S-labelled ECM. Release of sulfate-labeled material eluted in fractions 15-30 was evaluated as measure of heparanase activity, as described in ‘Materials and Methods’. […]"}, "CAG myeloma cells [2]": {"tested_on": "CAG myeloma cells", "assay": "Cell proliferation by BrdU incorporation, CAG myeloma cells", "assay_type": "cell-based, human", "conditions": "infected CAG cells, serum-free 20 h, BrdU 2 h; control Vo 24±3%", "method": "FIG. 4. T5 augments cell proliferation. A. BrdU incorporation. Morphology of control (Con), heparanase (Hepa)- and T5-infected CAG myeloma cell cultures is shown in the upper panels. […] Sub-confluent cultures of control (Vo), heparanase (Hepa)- and T5-infected CAG cells were grown in serum-free medium for 20 h followed by incubation with BrdU (1:1000) for 2 h. Cells were then fixed and immunostained with anti BrdU monoclonal antibody. Positively stained, red-brown nuclei were counted vs. blue, hematoxilin counter-stained nuclei. At least 1000 cells were counted for each cell type and the percentage of positively stained cells is noted in each panel. Fold increase in BrdU incorporation is shown graphically on the right panel. Gene silencing. 293 cells were transfected with anti-GFP (si-GFP), anti-heparanase (si-Hepa) or anti-T5 siRNA oligonucleotides and BrdU incorporation was evaluated as above except that cells were kept in serum-containing medium (lower panels). Note 2-fold decrease in BrdU incorporation following heparanase or T5 gene silencing (lower right panel). B. Colony formation in soft agar. […]\nCell proliferation was analyzed by BrdU incorporation using cell proliferation labeling reagent (1:1000, GE Healthcare), as described in Zetser, A., et al (2003 Cancer Res 63, 7733-7741). At least 1000 cells were counted for each cell type."}, "Binding to heparin beads": {"assay": "Binding to heparin beads", "conditions": "lysates of over expressing 293 cells, heparin beads", "source_text": "FIG. 7. […] A. Cell lysates. […] B,C. Peptide analysis. […] C. Enzymatic activity."}, "CAG myeloma cells [3]": {"tested_on": "CAG myeloma cells", "assay": "CAG myeloma tumor xenograft development and immunohistochemistry", "assay_type": "in vivo, athymic nude mice", "method": "FIG. 5. T5 enhances tumor xenograft development. Control (Vo), heparanase-, and T5-infected CAG myeloma cells were injected subcutaneously (1×10^6/0.1 ml) and tumor volume was calculated (A). At the end of the experiment on day 37, tumors were resected, photographed (A, inset) and weighted (B). C. Immunohistochemical analysis. Paraffin-embedded 5 micron sections were stained with hematoxilin & eosin (left column), anti-CD31 (second left column), and anti-smooth muscle actin (SMA, two right columns) antibodies. Note increased blood vessels density and maturation (recruitment of SMA-positive cells) in xenografts produced by heparanase- and T5-infected cells. Cells from exponential cultures of control-, heparanase-, and T5-infected CAG myeloma cells were detached with trypsin/EDTA, washed with PBS and brought to a concentration of 1×10^7 cells/ml. Cell suspension (1×10 6/0.1 ml) was inoculated subcutaneously at the right flank of 5-weeks old female athymic nude mice (n=7). Xenograft size was determined twice a week by externally measuring tumors in two dimensions using a caliper. At the end of the experiment, mice were sacrificed and xenografts were removed, weighted and fixed in formalin. Paraffin-embedded 5 micron sections were subjected to immunostaining with anti-PECAM-1 (CD31) or anti-smooth muscle actin (1A4, Sigma) antibodies, using the Envision kit, according to the manufacturer's (Dako, Glostrup, Denmark) instructions, as described (Fux, L., et al., 2009, Cancer Res 69, 1758-1767). All animal experiments were approved by the Animal Care Committee of the Technion, Haifa, Israel."}, "HUVEC": {"tested_on": "HUVEC", "assay": "Tube-like structure formation on Matrigel", "assay_type": "cell-based, human", "conditions": "T5 lenti virus infected HUVEC vs Vo, 24 h and 48 h", "method": "FIG. 9. A. Tube-like structure formation. Human umbilical vein endothelial cells (HUVEC) were infected with control (Vo) or T5 lenti virus constructs and plated on reconstituted basement membrane (Matrigel). Spontaneous organization into tube-like structures was examined after 24 h (upper panels) and 48 h (lower panels). Note network stabilization upon T5 over expression at 48 h. B Immunofluorescent staining of control (Vo), heparanase-, and T5-infected HUVEC cells applying anti-heparanase 733 antibody (green, left panels). Merged images with nuclear staining (Topro, red) are shown in the right panels. Note T5 localization to endocytic vesicles."}},
  "data": [
    {"molecule": "T5: novel splice variant of heparanase; truncated, enzymatically inactive 169 amino acid protein (protein, listed as Homo sapiens) MLLRSKPALPPPLMLLLLGPLGPLSPGALPRPAQAQDVVDLDFFTQEPLHLVSPSFLSVTIDANLATDPRFLILLGSPKLRTLARGLSPAYLRFGGTKTDFLIFDPKKESTFEERSYWQSQVNQDICKYGSIPPDVEEKLRLEWPYQEQLLLREHYQKKFKNSTYSSKK", "values": [
      {"measurement": "effect on the activity of endogenous heparanase", "setting": "[1]; T5 vs. Vo transfected 293 cells", "value": "did not seem to significantly impinge on the activity of endogenous heparanase"},
      {"measurement": "heparanase enzymatic activity", "setting": "[1]; lysates of stably transfected 293 cells, T5 vs. Hepa", "value": "lacks heparanase enzymatic activity"},
      {"measurement": "BrdU incorporation (positively stained cells)", "setting": "CAG myeloma cells [2]", "value": "52±5", "unit": "%"},
      {"measurement": "heparin binding of protein in cell lysates", "setting": "Binding to heparin beads", "value": "failed to bind heparin"},
      {"measurement": "pericytes associated with blood vessels (smooth muscle actin)", "setting": "CAG myeloma cells [3]; CAG xenografts, immunohistochemistry", "value": "significantly increased number of pericytes"},
      {"measurement": "average weight of xenografts", "setting": "CAG myeloma cells [3]; day 37, subcutaneous infected CAG cells, control 58±11 mg", "value": "738 ± 114", "unit": "mg"},
      {"measurement": "development of tumor xenografts after day 21 vs control cells", "setting": "CAG myeloma cells [3]; subcutaneous infected CAG cells", "value": "markedly enhanced"},
      {"measurement": "endothelial cell organization (tube formation) on Matrigel", "setting": "HUVEC", "value": "maintained for a relatively long period of time"}
    ]}
  ]
}
